Assay results published in patent US20180155451A1 (published 2018).

What follows are binders tested against T1, FcγRIa (human, UniProt P12314 16-292) (assay: SPR (Biacore), antibody captured on antigen peptide chip, FcγRIa as analyte; relative binding amount).
T1 construct: extracellular domain; also called FcgRI; CD64; not shown: C-terminal His tag
Experimental: Analysis of interaction between objective antibody and the FcγR was carried out using Biacore T100 (GE Healthcare). HBS-EP+ (GE Healthcare) was used as the running buffer, and the measurement temperature was set to 25° C. Chips produced by immobilizing the antigen peptide by the amine coupling method to a Series S Sencor Chip CM5 (GE Healthcare), or alternatively, chips produced by allowing preliminarily biotinylated antigen peptides to interact with and immobilize onto a Series S Sensor Chip SA (certified) (GE Healthcare) were used. Antibodies of interest were captured onto an antigen peptide-immobilized chip, and allowed to interact to each FcγR diluted with running buffer. To regenerate and repeatedly use the chip, the antibodies captured on the chip were washed off by reacting 10 mM glycine-HCl, pH 1.5.

T1 sequence (P12314 16-292): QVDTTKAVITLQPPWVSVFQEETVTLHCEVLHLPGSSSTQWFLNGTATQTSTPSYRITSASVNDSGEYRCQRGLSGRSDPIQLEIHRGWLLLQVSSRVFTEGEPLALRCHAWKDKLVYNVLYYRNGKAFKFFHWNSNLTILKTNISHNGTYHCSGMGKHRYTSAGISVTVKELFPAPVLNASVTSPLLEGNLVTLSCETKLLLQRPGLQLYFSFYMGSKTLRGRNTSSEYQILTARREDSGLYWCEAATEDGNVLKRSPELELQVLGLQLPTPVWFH

| Ho/Con_1a | He/Con_1a | Binder |
| --- | --- | --- |
| 110 % of control (GpH7-B3/GpL16-k0 = 100) |  | GpH7-B3 variant Y300_14T/GpL16-k0 (antibody, human IgG1, kappa, homodimerized IgG1; mutation in both H chains; also called Ho Ab) heavy: not shown light: DIVMTQSPLSLPVTPGEPASISCQASESLVHSNRNTYLHWYLQKPGQSPQLLIYKVSNRFSGVPDRFSGSGSGTDFTLKISRVEAEDVGVYYCSQNTHVPPTFGQGTKVEIERTVAAPSVFIFPPSDEQLKSGTASVVCLLNNFYPREAKVQWKVDNALQSGNSQESVTEQDSKDSTYSLSSTLTLSKADYEKHKVYACEVTHQGLSSPVTKSFNRGEC |
| 110 % of control (GpH7-B3/GpL16-k0 = 100) |  | GpH7-B3 variant Y300_20W/GpL16-k0 (antibody, human IgG1, kappa, homodimerized IgG1; mutation in both H chains; also called Ho Ab) heavy: not shown light: DIVMTQSPLSLPVTPGEPASISCQASESLVHSNRNTYLHWYLQKPGQSPQLLIYKVSNRFSGVPDRFSGSGSGTDFTLKISRVEAEDVGVYYCSQNTHVPPTFGQGTKVEIERTVAAPSVFIFPPSDEQLKSGTASVVCLLNNFYPREAKVQWKVDNALQSGNSQESVTEQDSKDSTYSLSSTLTLSKADYEKHKVYACEVTHQGLSSPVTKSFNRGEC |
|  | 106 % of control (GpH7-A5/GpH7-B3/GpL16-k0 = 100) | GpH7-A5/GpH7-B3 variant Y296_16H/GpL16-k0 (antibody, human IgG1, kappa, heterodimerized IgG1; mutation in one H chain only; also called He Ab) heavy 1: not shown heavy 2: not shown light: DIVMTQSPLSLPVTPGEPASISCQASESLVHSNRNTYLHWYLQKPGQSPQLLIYKVSNRFSGVPDRFSGSGSGTDFTLKISRVEAEDVGVYYCSQNTHVPPTFGQGTKVEIERTVAAPSVFIFPPSDEQLKSGTASVVCLLNNFYPREAKVQWKVDNALQSGNSQESVTEQDSKDSTYSLSSTLTLSKADYEKHKVYACEVTHQGLSSPVTKSFNRGEC |
| 110 % of control (GpH7-B3/GpL16-k0 = 100) |  | GpH7-B3 variant Y300_19Q/GpL16-k0 (antibody, human IgG1, kappa, homodimerized IgG1; mutation in both H chains; also called Ho Ab) heavy: not shown light: DIVMTQSPLSLPVTPGEPASISCQASESLVHSNRNTYLHWYLQKPGQSPQLLIYKVSNRFSGVPDRFSGSGSGTDFTLKISRVEAEDVGVYYCSQNTHVPPTFGQGTKVEIERTVAAPSVFIFPPSDEQLKSGTASVVCLLNNFYPREAKVQWKVDNALQSGNSQESVTEQDSKDSTYSLSSTLTLSKADYEKHKVYACEVTHQGLSSPVTKSFNRGEC |
|  | 106 % of control (GpH7-A5/GpH7-B3/GpL16-k0 = 100) | GpH7-A5/GpH7-B3 variant Y296_18N/GpL16-k0 (antibody, human IgG1, kappa, heterodimerized IgG1; mutation in one H chain only; also called He Ab) heavy 1: not shown heavy 2: not shown light: DIVMTQSPLSLPVTPGEPASISCQASESLVHSNRNTYLHWYLQKPGQSPQLLIYKVSNRFSGVPDRFSGSGSGTDFTLKISRVEAEDVGVYYCSQNTHVPPTFGQGTKVEIERTVAAPSVFIFPPSDEQLKSGTASVVCLLNNFYPREAKVQWKVDNALQSGNSQESVTEQDSKDSTYSLSSTLTLSKADYEKHKVYACEVTHQGLSSPVTKSFNRGEC |

Second part, the binder before the results:

| Binder | Ho/Con_1a | He/Con_1a |
| --- | --- | --- |
| GpH7-A5/GpH7-B3 variant Y300_01G/GpL16-k0 (antibody, human IgG1, kappa, heterodimerized IgG1; mutation in one H chain only; also called He Ab) heavy 1: not shown heavy 2: not shown light: DIVMTQSPLSLPVTPGEPASISCQASESLVHSNRNTYLHWYLQKPGQSPQLLIYKVSNRFSGVPDRFSGSGSGTDFTLKISRVEAEDVGVYYCSQNTHVPPTFGQGTKVEIERTVAAPSVFIFPPSDEQLKSGTASVVCLLNNFYPREAKVQWKVDNALQSGNSQESVTEQDSKDSTYSLSSTLTLSKADYEKHKVYACEVTHQGLSSPVTKSFNRGEC |  | 116 % of control (GpH7-A5/GpH7-B3/GpL16-k0 = 100) |
| GpH7-A5/GpH7-B3 variant T335_20W/GpL16-k0 (antibody, human IgG1, kappa, heterodimerized IgG1; mutation in one H chain only; also called He Ab) heavy 1: not shown heavy 2: not shown light: DIVMTQSPLSLPVTPGEPASISCQASESLVHSNRNTYLHWYLQKPGQSPQLLIYKVSNRFSGVPDRFSGSGSGTDFTLKISRVEAEDVGVYYCSQNTHVPPTFGQGTKVEIERTVAAPSVFIFPPSDEQLKSGTASVVCLLNNFYPREAKVQWKVDNALQSGNSQESVTEQDSKDSTYSLSSTLTLSKADYEKHKVYACEVTHQGLSSPVTKSFNRGEC |  | 106 % of control (GpH7-A5/GpH7-B3/GpL16-k0 = 100) |
| GpH7-A5/GpH7-B3 variant Y296_10E/GpL16-k0 (antibody, human IgG1, kappa, heterodimerized IgG1; mutation in one H chain only; also called He Ab) heavy 1: not shown heavy 2: not shown light: DIVMTQSPLSLPVTPGEPASISCQASESLVHSNRNTYLHWYLQKPGQSPQLLIYKVSNRFSGVPDRFSGSGSGTDFTLKISRVEAEDVGVYYCSQNTHVPPTFGQGTKVEIERTVAAPSVFIFPPSDEQLKSGTASVVCLLNNFYPREAKVQWKVDNALQSGNSQESVTEQDSKDSTYSLSSTLTLSKADYEKHKVYACEVTHQGLSSPVTKSFNRGEC |  | 106 % of control (GpH7-A5/GpH7-B3/GpL16-k0 = 100) |
| GpH7-A5/GpH7-B3 variant T335_16H/GpL16-k0 (antibody, human IgG1, kappa, heterodimerized IgG1; mutation in one H chain only; also called He Ab) heavy 1: not shown heavy 2: not shown light: DIVMTQSPLSLPVTPGEPASISCQASESLVHSNRNTYLHWYLQKPGQSPQLLIYKVSNRFSGVPDRFSGSGSGTDFTLKISRVEAEDVGVYYCSQNTHVPPTFGQGTKVEIERTVAAPSVFIFPPSDEQLKSGTASVVCLLNNFYPREAKVQWKVDNALQSGNSQESVTEQDSKDSTYSLSSTLTLSKADYEKHKVYACEVTHQGLSSPVTKSFNRGEC |  | 106 % of control (GpH7-A5/GpH7-B3/GpL16-k0 = 100) |
| GpH7-A5/GpH7-B3 variant Y296_11K/GpL16-k0 (antibody, human IgG1, kappa, heterodimerized IgG1; mutation in one H chain only; also called He Ab) heavy 1: not shown heavy 2: not shown light: DIVMTQSPLSLPVTPGEPASISCQASESLVHSNRNTYLHWYLQKPGQSPQLLIYKVSNRFSGVPDRFSGSGSGTDFTLKISRVEAEDVGVYYCSQNTHVPPTFGQGTKVEIERTVAAPSVFIFPPSDEQLKSGTASVVCLLNNFYPREAKVQWKVDNALQSGNSQESVTEQDSKDSTYSLSSTLTLSKADYEKHKVYACEVTHQGLSSPVTKSFNRGEC |  | 105 % of control (GpH7-A5/GpH7-B3/GpL16-k0 = 100) |
| GpH7-A5/GpH7-B3 variant Y296_06M/GpL16-k0 (antibody, human IgG1, kappa, heterodimerized IgG1; mutation in one H chain only; also called He Ab) heavy 1: not shown heavy 2: not shown light: DIVMTQSPLSLPVTPGEPASISCQASESLVHSNRNTYLHWYLQKPGQSPQLLIYKVSNRFSGVPDRFSGSGSGTDFTLKISRVEAEDVGVYYCSQNTHVPPTFGQGTKVEIERTVAAPSVFIFPPSDEQLKSGTASVVCLLNNFYPREAKVQWKVDNALQSGNSQESVTEQDSKDSTYSLSSTLTLSKADYEKHKVYACEVTHQGLSSPVTKSFNRGEC |  | 104 % of control (GpH7-A5/GpH7-B3/GpL16-k0 = 100) |
| GpH7-A5/GpH7-B3 variant T335_18N/GpL16-k0 (antibody, human IgG1, kappa, heterodimerized IgG1; mutation in one H chain only; also called He Ab) heavy 1: not shown heavy 2: not shown light: DIVMTQSPLSLPVTPGEPASISCQASESLVHSNRNTYLHWYLQKPGQSPQLLIYKVSNRFSGVPDRFSGSGSGTDFTLKISRVEAEDVGVYYCSQNTHVPPTFGQGTKVEIERTVAAPSVFIFPPSDEQLKSGTASVVCLLNNFYPREAKVQWKVDNALQSGNSQESVTEQDSKDSTYSLSSTLTLSKADYEKHKVYACEVTHQGLSSPVTKSFNRGEC |  | 106 % of control (GpH7-A5/GpH7-B3/GpL16-k0 = 100) |
| GpH7-A5/GpH7-B3 variant Y296_14T/GpL16-k0 (antibody, human IgG1, kappa, heterodimerized IgG1; mutation in one H chain only; also called He Ab) heavy 1: not shown heavy 2: not shown light: DIVMTQSPLSLPVTPGEPASISCQASESLVHSNRNTYLHWYLQKPGQSPQLLIYKVSNRFSGVPDRFSGSGSGTDFTLKISRVEAEDVGVYYCSQNTHVPPTFGQGTKVEIERTVAAPSVFIFPPSDEQLKSGTASVVCLLNNFYPREAKVQWKVDNALQSGNSQESVTEQDSKDSTYSLSSTLTLSKADYEKHKVYACEVTHQGLSSPVTKSFNRGEC |  | 105 % of control (GpH7-A5/GpH7-B3/GpL16-k0 = 100) |
| GpH7-A5/GpH7-B3 variant Y296_13S/GpL16-k0 (antibody, human IgG1, kappa, heterodimerized IgG1; mutation in one H chain only; also called He Ab) heavy 1: not shown heavy 2: not shown light: DIVMTQSPLSLPVTPGEPASISCQASESLVHSNRNTYLHWYLQKPGQSPQLLIYKVSNRFSGVPDRFSGSGSGTDFTLKISRVEAEDVGVYYCSQNTHVPPTFGQGTKVEIERTVAAPSVFIFPPSDEQLKSGTASVVCLLNNFYPREAKVQWKVDNALQSGNSQESVTEQDSKDSTYSLSSTLTLSKADYEKHKVYACEVTHQGLSSPVTKSFNRGEC |  | 105 % of control (GpH7-A5/GpH7-B3/GpL16-k0 = 100) |
| GpH7-A5/GpH7-B3 variant T335_19Q/GpL16-k0 (antibody, human IgG1, kappa, heterodimerized IgG1; mutation in one H chain only; also called He Ab) heavy 1: not shown heavy 2: not shown light: DIVMTQSPLSLPVTPGEPASISCQASESLVHSNRNTYLHWYLQKPGQSPQLLIYKVSNRFSGVPDRFSGSGSGTDFTLKISRVEAEDVGVYYCSQNTHVPPTFGQGTKVEIERTVAAPSVFIFPPSDEQLKSGTASVVCLLNNFYPREAKVQWKVDNALQSGNSQESVTEQDSKDSTYSLSSTLTLSKADYEKHKVYACEVTHQGLSSPVTKSFNRGEC |  | 105 % of control (GpH7-A5/GpH7-B3/GpL16-k0 = 100) |
| GpH7-A5/GpH7-B3 variant Y296_12R/GpL16-k0 (antibody, human IgG1, kappa, heterodimerized IgG1; mutation in one H chain only; also called He Ab) heavy 1: not shown heavy 2: not shown light: DIVMTQSPLSLPVTPGEPASISCQASESLVHSNRNTYLHWYLQKPGQSPQLLIYKVSNRFSGVPDRFSGSGSGTDFTLKISRVEAEDVGVYYCSQNTHVPPTFGQGTKVEIERTVAAPSVFIFPPSDEQLKSGTASVVCLLNNFYPREAKVQWKVDNALQSGNSQESVTEQDSKDSTYSLSSTLTLSKADYEKHKVYACEVTHQGLSSPVTKSFNRGEC |  | 106 % of control (GpH7-A5/GpH7-B3/GpL16-k0 = 100) |
